Experimental data: US20140087995A1 (published 2014)
Numbered stars: 1 amine (or outer) side, 2 acyl side, 3 side chain; on linkers, the order of the positions; unused ones are H or OH. Bridge positions count the residues as written; N and C are the ends. Side chains are listed from the residue outwards. Ends that are not written are not given here. * marks the point of attachment. C20 diacid = O=C(O)CCCCCCCCCCCCCCCCCCC(=O)*; γGlu = O=C(O)[C@H](CCC(=O)[*:2])N[*:1]

T1: human amylin 3(a) receptor (human calcitonin receptor + RAMP-3) (human, UniProt P30988 25-474; O60896 24-148, limits assumed)
T1 sequence (looked up) 1: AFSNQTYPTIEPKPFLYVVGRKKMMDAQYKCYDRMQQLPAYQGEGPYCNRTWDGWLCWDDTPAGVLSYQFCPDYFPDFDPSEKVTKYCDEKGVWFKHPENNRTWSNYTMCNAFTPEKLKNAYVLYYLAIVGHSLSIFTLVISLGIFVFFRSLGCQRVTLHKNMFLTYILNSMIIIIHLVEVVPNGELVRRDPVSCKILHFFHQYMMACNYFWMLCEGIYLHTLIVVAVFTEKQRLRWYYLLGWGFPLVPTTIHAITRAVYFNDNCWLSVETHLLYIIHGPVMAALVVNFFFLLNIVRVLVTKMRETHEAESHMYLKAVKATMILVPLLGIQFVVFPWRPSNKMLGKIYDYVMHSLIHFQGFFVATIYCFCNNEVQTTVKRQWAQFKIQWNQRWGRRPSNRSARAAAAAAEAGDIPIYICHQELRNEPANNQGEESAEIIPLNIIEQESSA
T1 sequence (looked up) 2: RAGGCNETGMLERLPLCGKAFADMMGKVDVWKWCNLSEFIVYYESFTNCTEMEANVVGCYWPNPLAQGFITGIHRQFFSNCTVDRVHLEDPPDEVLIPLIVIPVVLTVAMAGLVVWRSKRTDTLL

T2: human calcitonin receptor (human, UniProt P30988 25-474)
T2 sequence (looked up): T1 sequence (looked up) 1

B1: N^α1-[(4S)-4-carboxy-4-(19-carboxynonadecanoylamino)butanoyl]-[Glu14,Arg17,Pro21,Pro27,Pro29]-h-amylin (peptide)
peptide: {C20 diacid-γGlu}-KCNTATCATQRLAEFLRHSSPNFGAIPSPTNVGSNTY-NH2
modifications: disulfide 2-7
SMILES: CC[C@H](C)[C@H](NC(=O)[C@H](C)NC(=O)CNC(=O)[C@H](Cc1ccccc1)NC(=O)[C@H](CC(N)=O)NC(=O)[C@@H]1CCCN1C(=O)[C@H](CO)NC(=O)[C@H](CO)NC(=O)[C@H](Cc1c[nH]cn1)NC(=O)[C@H](CCCNC(=N)N)NC(=O)[C@H](CC(C)C)NC(=O)[C@H](Cc1ccccc1)NC(=O)[C@H](CCC(=O)O)NC(=O)[C@H](C)NC(=O)[C@H](CC(C)C)NC(=O)[C@H](CCCNC(=N)N)NC(=O)[C@H](CCC(N)=O)NC(=O)[C@@H](NC(=O)[C@H](C)NC(=O)[C@@H]1CSSC[C@H](NC(=O)[C@H](CCCCN)NC(=O)CC[C@H](NC(=O)CCCCCCCCCCCCCCCCCCC(=O)O)C(=O)O)C(=O)N[C@@H](CC(N)=O)C(=O)N[C@@H]([C@@H](C)O)C(=O)N[C@@H](C)C(=O)N[C@@H]([C@@H](C)O)C(=O)N1)[C@@H](C)O)C(=O)N1CCC[C@H]1C(=O)N[C@@H](CO)C(=O)N1CCC[C@H]1C(=O)N[C@H](C(=O)N[C@@H](CC(N)=O)C(=O)N[C@H](C(=O)NCC(=O)N[C@@H](CO)C(=O)N[C@@H](CC(N)=O)C(=O)N[C@H](C(=O)N[C@@H](Cc1ccc(O)cc1)C(N)=O)[C@@H](C)O)C(C)C)[C@@H](C)O
notes: also called compound 37
B2: N^α1N^α1-[(4S)-4-carboxy-4-(19-carboxynonadecanoylamino)butanoyl]-[Glu14,Arg17,Pro21,Pro27,Glu35]-h-amylin (peptide)
peptide: {C20 diacid-γGlu}-KCNTATCATQRLAEFLRHSSPNFGAIPSSTNVGSETY-NH2
modifications: disulfide 2-7
SMILES: CC[C@H](C)[C@H](NC(=O)[C@H](C)NC(=O)CNC(=O)[C@H](Cc1ccccc1)NC(=O)[C@H](CC(N)=O)NC(=O)[C@@H]1CCCN1C(=O)[C@H](CO)NC(=O)[C@H](CO)NC(=O)[C@H](Cc1c[nH]cn1)NC(=O)[C@H](CCCNC(=N)N)NC(=O)[C@H](CC(C)C)NC(=O)[C@H](Cc1ccccc1)NC(=O)[C@H](CCC(=O)O)NC(=O)[C@H](C)NC(=O)[C@H](CC(C)C)NC(=O)[C@H](CCCNC(=N)N)NC(=O)[C@H](CCC(N)=O)NC(=O)[C@@H](NC(=O)[C@H](C)NC(=O)[C@@H]1CSSC[C@H](NC(=O)[C@H](CCCCN)NC(=O)CC[C@H](NC(=O)CCCCCCCCCCCCCCCCCCC(=O)O)C(=O)O)C(=O)N[C@@H](CC(N)=O)C(=O)N[C@@H]([C@@H](C)O)C(=O)N[C@@H](C)C(=O)N[C@@H]([C@@H](C)O)C(=O)N1)[C@@H](C)O)C(=O)N1CCC[C@H]1C(=O)N[C@@H](CO)C(=O)N[C@@H](CO)C(=O)N[C@H](C(=O)N[C@@H](CC(N)=O)C(=O)N[C@H](C(=O)NCC(=O)N[C@@H](CO)C(=O)N[C@@H](CCC(=O)O)C(=O)N[C@H](C(=O)N[C@@H](Cc1ccc(O)cc1)C(N)=O)[C@@H](C)O)C(C)C)[C@@H](C)O
notes: also called compound 22
B3: N^ε1-[(4S)-4-carboxy-4-(19-carboxynonadecanoylamino)butanoyl]-[Glu14,Arg17,Pro21,Pro27,Pro34,Pro37]-h-amylin (peptide)
peptide: K([γGlu-C20 diacid])CNTATCATQRLAEFLRHSSPNFGAIPSSTNVGPNTP-NH2
modifications: disulfide 2-7; N-terminus assumed
SMILES: CC[C@H](C)[C@H](NC(=O)[C@H](C)NC(=O)CNC(=O)[C@H](Cc1ccccc1)NC(=O)[C@H](CC(N)=O)NC(=O)[C@@H]1CCCN1C(=O)[C@H](CO)NC(=O)[C@H](CO)NC(=O)[C@H](Cc1c[nH]cn1)NC(=O)[C@H](CCCNC(=N)N)NC(=O)[C@H](CC(C)C)NC(=O)[C@H](Cc1ccccc1)NC(=O)[C@H](CCC(=O)O)NC(=O)[C@H](C)NC(=O)[C@H](CC(C)C)NC(=O)[C@H](CCCNC(=N)N)NC(=O)[C@H](CCC(N)=O)NC(=O)[C@@H](NC(=O)[C@H](C)NC(=O)[C@@H]1CSSC[C@H](NC(=O)[C@@H](N)CCCCNC(=O)CC[C@H](NC(=O)CCCCCCCCCCCCCCCCCCC(=O)O)C(=O)O)C(=O)N[C@@H](CC(N)=O)C(=O)N[C@@H]([C@@H](C)O)C(=O)N[C@@H](C)C(=O)N[C@@H]([C@@H](C)O)C(=O)N1)[C@@H](C)O)C(=O)N1CCC[C@H]1C(=O)N[C@@H](CO)C(=O)N[C@@H](CO)C(=O)N[C@H](C(=O)N[C@@H](CC(N)=O)C(=O)N[C@H](C(=O)NCC(=O)N1CCC[C@H]1C(=O)N[C@@H](CC(N)=O)C(=O)N[C@H](C(=O)N1CCC[C@H]1C(N)=O)[C@@H](C)O)C(C)C)[C@@H](C)O
B4: N^ε1-[(4S)-4-carboxy-4-(19-carboxynonadecanoylamino)butanoyl]-[Ala14,Arg17,Pro21,Pro27,Pro34]-h-amylin (peptide)
peptide: K([γGlu-C20 diacid])CNTATCATQRLAAFLRHSSPNFGAIPSSTNVGPNTY-NH2
modifications: disulfide 2-7; N-terminus assumed
SMILES: CC[C@H](C)[C@H](NC(=O)[C@H](C)NC(=O)CNC(=O)[C@H](Cc1ccccc1)NC(=O)[C@H](CC(N)=O)NC(=O)[C@@H]1CCCN1C(=O)[C@H](CO)NC(=O)[C@H](CO)NC(=O)[C@H](Cc1c[nH]cn1)NC(=O)[C@H](CCCNC(=N)N)NC(=O)[C@H](CC(C)C)NC(=O)[C@H](Cc1ccccc1)NC(=O)[C@H](C)NC(=O)[C@H](C)NC(=O)[C@H](CC(C)C)NC(=O)[C@H](CCCNC(=N)N)NC(=O)[C@H](CCC(N)=O)NC(=O)[C@@H](NC(=O)[C@H](C)NC(=O)[C@@H]1CSSC[C@H](NC(=O)[C@@H](N)CCCCNC(=O)CC[C@H](NC(=O)CCCCCCCCCCCCCCCCCCC(=O)O)C(=O)O)C(=O)N[C@@H](CC(N)=O)C(=O)N[C@@H]([C@@H](C)O)C(=O)N[C@@H](C)C(=O)N[C@@H]([C@@H](C)O)C(=O)N1)[C@@H](C)O)C(=O)N1CCC[C@H]1C(=O)N[C@@H](CO)C(=O)N[C@@H](CO)C(=O)N[C@H](C(=O)N[C@@H](CC(N)=O)C(=O)N[C@H](C(=O)NCC(=O)N1CCC[C@H]1C(=O)N[C@@H](CC(N)=O)C(=O)N[C@H](C(=O)N[C@@H](Cc1ccc(O)cc1)C(N)=O)[C@@H](C)O)C(C)C)[C@@H](C)O
notes: also called compound 94
B5: N^ε1-[(4S)-4-carboxy-4-(19-carboxynonadecanoylamino)butanoyl]-[Asp14,Arg17,Pro21,Pro27,Pro34,Glu35]-h-amylin (peptide)
peptide: K([γGlu-C20 diacid])CNTATCATQRLADFLRHSSPNFGAIPSSTNVGPETY-NH2
modifications: disulfide 2-7; N-terminus assumed
SMILES: CC[C@H](C)[C@H](NC(=O)[C@H](C)NC(=O)CNC(=O)[C@H](Cc1ccccc1)NC(=O)[C@H](CC(N)=O)NC(=O)[C@@H]1CCCN1C(=O)[C@H](CO)NC(=O)[C@H](CO)NC(=O)[C@H](Cc1c[nH]cn1)NC(=O)[C@H](CCCNC(=N)N)NC(=O)[C@H](CC(C)C)NC(=O)[C@H](Cc1ccccc1)NC(=O)[C@H](CC(=O)O)NC(=O)[C@H](C)NC(=O)[C@H](CC(C)C)NC(=O)[C@H](CCCNC(=N)N)NC(=O)[C@H](CCC(N)=O)NC(=O)[C@@H](NC(=O)[C@H](C)NC(=O)[C@@H]1CSSC[C@H](NC(=O)[C@@H](N)CCCCNC(=O)CC[C@H](NC(=O)CCCCCCCCCCCCCCCCCCC(=O)O)C(=O)O)C(=O)N[C@@H](CC(N)=O)C(=O)N[C@@H]([C@@H](C)O)C(=O)N[C@@H](C)C(=O)N[C@@H]([C@@H](C)O)C(=O)N1)[C@@H](C)O)C(=O)N1CCC[C@H]1C(=O)N[C@@H](CO)C(=O)N[C@@H](CO)C(=O)N[C@H](C(=O)N[C@@H](CC(N)=O)C(=O)N[C@H](C(=O)NCC(=O)N1CCC[C@H]1C(=O)N[C@@H](CCC(=O)O)C(=O)N[C@H](C(=O)N[C@@H](Cc1ccc(O)cc1)C(N)=O)[C@@H](C)O)C(C)C)[C@@H](C)O
B6: N^ε1-[(4S)-4-carboxy-4-(19-carboxynonadecanoylamino)butanoyl]-[His14,Arg17,Pro21,Pro27,Pro31,Pro34]-h-amylin (peptide)
peptide: K([γGlu-C20 diacid])CNTATCATQRLAHFLRHSSPNFGAIPSSTPVGPNTY-NH2
modifications: disulfide 2-7; N-terminus assumed
SMILES: CC[C@H](C)[C@H](NC(=O)[C@H](C)NC(=O)CNC(=O)[C@H](Cc1ccccc1)NC(=O)[C@H](CC(N)=O)NC(=O)[C@@H]1CCCN1C(=O)[C@H](CO)NC(=O)[C@H](CO)NC(=O)[C@H](Cc1c[nH]cn1)NC(=O)[C@H](CCCNC(=N)N)NC(=O)[C@H](CC(C)C)NC(=O)[C@H](Cc1ccccc1)NC(=O)[C@H](Cc1c[nH]cn1)NC(=O)[C@H](C)NC(=O)[C@H](CC(C)C)NC(=O)[C@H](CCCNC(=N)N)NC(=O)[C@H](CCC(N)=O)NC(=O)[C@@H](NC(=O)[C@H](C)NC(=O)[C@@H]1CSSC[C@H](NC(=O)[C@@H](N)CCCCNC(=O)CC[C@H](NC(=O)CCCCCCCCCCCCCCCCCCC(=O)O)C(=O)O)C(=O)N[C@@H](CC(N)=O)C(=O)N[C@@H]([C@@H](C)O)C(=O)N[C@@H](C)C(=O)N[C@@H]([C@@H](C)O)C(=O)N1)[C@@H](C)O)C(=O)N1CCC[C@H]1C(=O)N[C@@H](CO)C(=O)N[C@@H](CO)C(=O)N[C@H](C(=O)N1CCC[C@H]1C(=O)N[C@H](C(=O)NCC(=O)N1CCC[C@H]1C(=O)N[C@@H](CC(N)=O)C(=O)N[C@H](C(=O)N[C@@H](Cc1ccc(O)cc1)C(N)=O)[C@@H](C)O)C(C)C)[C@@H](C)O

Biological target: T1, human amylin 3(a) receptor (human …)
Assay: cell-based or functional assay

Row | hAmylin-R funct. EC50 (pM) | Binder
1 | 92 | B1
2 | 270 | B2
3 | 105 | B3
4 | 70 | B4
5 | 288 | B5
6 | 71 | B6

Biological target: T2, human calcitonin receptor
Assay: cell-based or functional assay

Row | Ratio hCT/hAmylin funct. | hCTR funct. EC50 (pM) | Binder
7 | 4 |  | B1
8 | 3.8 |  | B2
9 | 0.9 |  | B3
10 | 4.5 |  | B4
11 | 3.9 | 1120 | B5
12 | 4.9 |  | B6
